According to patent US20250163162A1:

B1: hIL10Ra_VHH14-hIL2Rg_VHH19, linker GGGS, tag his (bispecific antibody, not shown: small tags and cut ends)
chain: QVQLQESGGGSVQAGGSLRLSCGASGYTYSSYCMGWFRQVPGKEREGVAVIDSDGSTSYADSVKGRFTISKDNGKNTLYLQMNSLKPEDTAMYYCAADLGHYRPPCGVLYLGMDYWGKGTQVTVSSGGGSQVQLQESGGGSVQAGGSLRLSCTASGFTFDDREMNWYRQAPGNECELVSTISSDGSTYYADSVKGRFTISQDNAKNTVYLQMDSVKPEDTAVYYCAADFMIAIQAPGAGCWGQGTQVTVSS
B2: hIL10Ra_VHH14-hIL2Rg_VHH19, no linker, tag his (bispecific antibody, not shown: small tags and cut ends)
chain: QVQLQESGGGSVQAGGSLRLSCGASGYTYSSYCMGWFRQVPGKEREGVAVIDSDGSTSYADSVKGRFTISKDNGKNTLYLQMNSLKPEDTAMYYCAADLGHYRPPCGVLYLGMDYWGKGTQVTVSSQVQLQESGGGSVQAGGSLRLSCTASGFTFDDREMNWYRQAPGNECELVSTISSDGSTYYADSVKGRFTISQDNAKNTVYLQMDSVKPEDTAVYYCAADFMIAIQAPGAGCWGQGTQVTVSS
B3: hIL10Ra_VHH14-hIL2Rg_VHH19, linker GS, tag his (bispecific antibody, not shown: small tags and cut ends)
chain: QVQLQESGGGSVQAGGSLRLSCGASGYTYSSYCMGWFRQVPGKEREGVAVIDSDGSTSYADSVKGRFTISKDNGKNTLYLQMNSLKPEDTAMYYCAADLGHYRPPCGVLYLGMDYWGKGTQVTVSSGSQVQLQESGGGSVQAGGSLRLSCTASGFTFDDREMNWYRQAPGNECELVSTISSDGSTYYADSVKGRFTISQDNAKNTVYLQMDSVKPEDTAVYYCAADFMIAIQAPGAGCWGQGTQVTVSS

Each binder was assayed against T1, IL10Rα and IL2Rγ on human primary cells (CD8 T cells, CD4 T cells, monocytes) (human) (UniProt Q13651) (assay: cell-based or functional assay).
T1 sequence (looked up) 1: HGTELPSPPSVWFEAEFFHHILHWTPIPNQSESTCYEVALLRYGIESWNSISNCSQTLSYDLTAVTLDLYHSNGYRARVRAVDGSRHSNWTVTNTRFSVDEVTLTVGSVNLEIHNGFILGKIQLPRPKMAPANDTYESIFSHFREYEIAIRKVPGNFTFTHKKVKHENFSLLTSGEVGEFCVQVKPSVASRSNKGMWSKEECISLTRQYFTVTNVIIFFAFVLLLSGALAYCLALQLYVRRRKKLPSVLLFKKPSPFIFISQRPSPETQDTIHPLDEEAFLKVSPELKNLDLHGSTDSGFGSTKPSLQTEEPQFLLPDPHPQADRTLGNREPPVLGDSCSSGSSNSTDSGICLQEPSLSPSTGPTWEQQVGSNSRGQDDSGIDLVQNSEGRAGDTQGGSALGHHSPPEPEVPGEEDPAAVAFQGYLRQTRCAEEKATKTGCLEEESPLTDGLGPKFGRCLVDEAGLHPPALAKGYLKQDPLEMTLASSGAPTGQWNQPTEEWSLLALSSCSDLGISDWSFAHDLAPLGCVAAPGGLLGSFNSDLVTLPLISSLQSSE
T1 sequence (looked up) 2: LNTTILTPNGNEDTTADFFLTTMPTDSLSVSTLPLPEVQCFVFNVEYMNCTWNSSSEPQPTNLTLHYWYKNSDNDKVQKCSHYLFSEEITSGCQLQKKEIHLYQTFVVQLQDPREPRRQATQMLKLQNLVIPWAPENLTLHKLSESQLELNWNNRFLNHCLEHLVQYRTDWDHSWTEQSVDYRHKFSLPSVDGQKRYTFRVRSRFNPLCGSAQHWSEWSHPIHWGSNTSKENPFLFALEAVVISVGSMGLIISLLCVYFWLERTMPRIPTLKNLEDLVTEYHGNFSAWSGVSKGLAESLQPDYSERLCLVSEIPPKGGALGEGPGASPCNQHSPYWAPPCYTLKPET
B1 gave a pSTAT3 (MFI) in CD4 T cells at 0.0001 µM of 11900 MFI, a pSTAT3 (MFI) in CD4 T cells at 0.001 µM of 12100 MFI and a pSTAT3 (MFI) in CD4 T cells at 0.01 µM of 11700 MFI. The pSTAT3 (MFI) in CD4 T cells at 0.1 µM was 9670 MFI, the pSTAT3 (MFI) in CD4 T cells at 1 µM was 9590 MFI and the pSTAT3 (MFI) in CD4 T cells at 10 µM was 11400 MFI. For the same binder, the pSTAT3 (MFI) in CD4 T cells at 100 µM was 14700 MFI, the pSTAT3 (MFI) in CD8 T cells at 0.0001 µM was 7210 MFI and the pSTAT3 (MFI) in CD8 T cells at 0.001 µM was 7460 MFI. It also gave a pSTAT3 (MFI) in CD8 T cells at 0.01 µM of 7200 MFI, a pSTAT3 (MFI) in CD8 T cells at 0.1 µM of 6580 MFI and a pSTAT3 (MFI) in CD8 T cells at 1 µM of 6500 MFI. The pSTAT3 (MFI) in CD8 T cells at 10 µM was 7930 MFI, the pSTAT3 (MFI) in CD8 T cells at 100 µM was 9970 MFI and the pSTAT3 (MFI) in monocytes at 0.0001 µM was 4150 MFI. The pSTAT3 (MFI) in monocytes at 0.001 µM was 4510 MFI, the pSTAT3 (MFI) in monocytes at 0.01 µM was 4360 MFI and the pSTAT3 (MFI) in monocytes at 0.1 µM was 4280 MFI. For the same binder, the pSTAT3 (MFI) in monocytes at 1 µM was 4640 MFI, the pSTAT3 (MFI) in monocytes at 10 µM was 4840 MFI and the pSTAT3 (MFI) in monocytes at 100 µM was 4880 MFI. With B2 the pSTAT3 (MFI) in CD4 T cells at 0.0001 µM was 12200 MFI, the pSTAT3 (MFI) in CD4 T cells at 0.001 µM was 12900 MFI and the pSTAT3 (MFI) in CD4 T cells at 0.01 µM was 12500 MFI. It also gave a pSTAT3 (MFI) in CD4 T cells at 0.1 µM of 11000 MFI, a pSTAT3 (MFI) in CD4 T cells at 1 µM of 12100 MFI and a pSTAT3 (MFI) in CD4 T cells at 10 µM of 11800 MFI. It also gave a pSTAT3 (MFI) in CD4 T cells at 100 µM of 9040 MFI, a pSTAT3 (MFI) in CD8 T cells at 0.0001 µM of 7380 MFI and a pSTAT3 (MFI) in CD8 T cells at 0.001 µM of 7740 MFI. It also gave a pSTAT3 (MFI) in CD8 T cells at 0.01 µM of 7800 MFI, a pSTAT3 (MFI) in CD8 T cells at 0.1 µM of 6780 MFI and a pSTAT3 (MFI) in CD8 T cells at 1 µM of 7720 MFI. The pSTAT3 (MFI) in CD8 T cells at 10 µM was 7490 MFI, the pSTAT3 (MFI) in CD8 T cells at 100 µM was 6200 MFI and the pSTAT3 (MFI) in monocytes at 0.0001 µM was 3970 MFI. For the same binder, the pSTAT3 (MFI) in monocytes at 0.001 µM was 4600 MFI, the pSTAT3 (MFI) in monocytes at 0.01 µM was 4420 MFI and the pSTAT3 (MFI) in monocytes at 0.1 µM was 4420 MFI. It also gave a pSTAT3 (MFI) in monocytes at 1 µM of 4480 MFI, a pSTAT3 (MFI) in monocytes at 10 µM of 4330 MFI and a pSTAT3 (MFI) in monocytes at 100 µM of 4140 MFI. With B3 the pSTAT3 (MFI) in CD4 T cells at 0.0001 µM was 11700 MFI, the pSTAT3 (MFI) in CD4 T cells at 0.001 µM was 12800 MFI and the pSTAT3 (MFI) in CD4 T cells at 0.01 µM was 13600 MFI. It also gave a pSTAT3 (MFI) in CD4 T cells at 0.1 µM of 10900 MFI, a pSTAT3 (MFI) in CD4 T cells at 1 µM of 12900 MFI and a pSTAT3 (MFI) in CD4 T cells at 10 µM of 12600 MFI. It also gave a pSTAT3 (MFI) in CD4 T cells at 100 µM of 11600 MFI, a pSTAT3 (MFI) in CD8 T cells at 0.0001 µM of 7400 MFI and a pSTAT3 (MFI) in CD8 T cells at 0.001 µM of 8110 MFI. The pSTAT3 (MFI) in CD8 T cells at 0.01 µM was 8110 MFI, the pSTAT3 (MFI) in CD8 T cells at 0.1 µM was 7100 MFI and the pSTAT3 (MFI) in CD8 T cells at 1 µM was 8200 MFI. The pSTAT3 (MFI) in CD8 T cells at 10 µM was 8410 MFI, the pSTAT3 (MFI) in CD8 T cells at 100 µM was 7900 MFI and the pSTAT3 (MFI) in monocytes at 0.0001 µM was 4040 MFI. It also gave a pSTAT3 (MFI) in monocytes at 0.001 µM of 4820 MFI, a pSTAT3 (MFI) in monocytes at 0.01 µM of 4010 MFI and a pSTAT3 (MFI) in monocytes at 0.1 µM of 4430 MFI. For the same binder, the pSTAT3 (MFI) in monocytes at 1 µM was 4790 MFI, the pSTAT3 (MFI) in monocytes at 10 µM was 4930 MFI and the pSTAT3 (MFI) in monocytes at 100 µM was 4930 MFI.
